The nature of this data set: yeast display, Sf9 membrane polyspecificity reagent, FACS + sequencing; frameworks hold sequencing errors. In a few lines:
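Sorting gates, low and high (top ~1%), were placed on anti-HA fluorescence to track expression and on streptavidin fluorescence to track reagent binding. A clone's polyreactivity label is taken from the gate it came out of. The reagent was 10% biotinylated, detergent-solubilized Sf9 membrane, applied for 1 hour at 4 °C to galactose-induced yeast display cells.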
On to “QVQLVESGGGLVQAGGSLRLSCAASGLTFYWYAMGWYRQAPGKERELVAAITSTGSTYYADSVKGRFTISRDNAKNTVYLQMNSLKPEDTAVYYCNADFPANWGWDYDYWGQGTQVTVSS”, for which the “polyreactivity (PSR sort gate)” value is given as “low polyreactivity”.

On to “QVQLVESGGGLVQAGGSLRLSCAASGLTFYYNAMGWYRQAPGKERELVAVIRGSGGSTYYADSVKGRFTISRDNAKNTVYLQMNSLKPEDTAVYYCAARVAASRRYYYWGQGTQVTVSS”, for which the “polyreactivity (PSR sort gate)” value is “high polyreactivity”.

In the case of “QVQLVESGGGLVQAGGSLRLSCAASGLTFYYYAMGWYRQAPGKERELVADISYSGGSTYYADSVKGRFTISRDNAKNTVYLQMNSLKPEDTAVYYCAAEGGYTISGSYDYWGQVTQVTVSS”, the “polyreactivity (PSR sort gate)” value is recorded as “low polyreactivity”.

For the sequence “QVQLVESGGGLVQAGGSLRLSCAASGLTFYYYAMGWYRQAPGKERELVARISSGTSTYYADSVKGRFTISRDNAKNTVYLQMNCMKPEDTAVYYCTARRKLGSTHGPWGGLEYWGEGTQVTVSS”, the “polyreactivity (PSR sort gate)” value is given as “low polyreactivity”.

Take “QVQLVESGGGLVQAGGSLRLSCAASGLTFYYYAMGWYRQAPGKERQLVAAISRSGGSTYYADSVKGRFTISRDNAKNTVYLQMNSLKPEDTAVYYCAAREPYEGQRYYYEYYYWGQGTQVTVSS”: the “polyreactivity (PSR sort gate)” value was “high polyreactivity”.

Regarding “QVQLVESGGGLVQAGGSLRLSCAASGLTIFVNAMGWYRQAPGKERELVATISGGGSTYYADSVKGRFTISRDNAKNTVYLQMNSLKPEDTAVYYCNAADVGGPWWYPYTYNYWGQGTQVTVSS”, the “polyreactivity (PSR sort gate)” value is given as “low polyreactivity”.

On to “QVQLVESGGGLVQAGGSLRLSCAASGLTIGSNVMGWYRQAPGKERELVAAISQSGGRTYYADSVKGRFTISRDNAKNTVYLQMNSLKQEDTAVYYCAKRLRSFYGRPMGDYWGQGTQVTVSS”, for which the “polyreactivity (PSR sort gate)” value was “high polyreactivity”.

Consider “QVQLVESGGGLVQAGGSLRLSCAASGLTIRNYAMGWYRQAPGKERELVAAITVSGGSTYYADSVKGRFTISRDNAKNTVYLQMNSLKPEDTAVYYSSARVIHTTYSRNYYYWGQGTQVTVSS”, for which the “polyreactivity (PSR sort gate)” value is given as “high polyreactivity”.

Take “QVQLVESGGGLVQAGGSLRLSCAASGLTIVWYGMVWYRQAPGKERELVAAITRGGSTYYADSVKGRFTISRDNAKNTVYLQMNSLKPEDTAVYYCAATSTYRARFEYWGQGTQVTVSS”: the “polyreactivity (PSR sort gate)” value is recorded as “high polyreactivity”.

On to “QVQLVESGGGLVQAGGSLRLSCAASGLTIWRYALGWYRQAPGKEREFVATISQNGGRTYYADSVKGRFTISRDNAKNTVYVQMNSLKPEDTAVYYCADDDWRWGYDYWGQGTQVTVSS”, for which the “polyreactivity (PSR sort gate)” value was “high polyreactivity”.

As for “QVQLVESGGGLVQAGGSLRLSCAASGLTIYHYSMGCYRQAPGKERELGAAISGNGVSTYYADSVKGRFTISRDNAKNTVYLQMNSLNPEDTAVYYCNVVFRFNSFDFYYWGLGTQVTVSS”, the “polyreactivity (PSR sort gate)” value was “high polyreactivity”.

For “QVQLVESGGGLVQAGGSLRLSCAASGLTIYPNAMGWYRQAPGKERELVAAITYSGDTYYADSVKGRFTISRDNAKNTVYLQMNSLKPEDTAVYYCATDVDWAYGYQYEYWGQGTQVTVSS”, the “polyreactivity (PSR sort gate)” value is reported as “low polyreactivity”.

In the case of “QVQLVESGGGLVQAGGSLRLSCAASGLTLDPYAMGWSRQAPGKERELVAAISWSGGGTTYADSVKGRFTISRDNAMNTVYLQMNSLKPEDTAVYYCAAAAPHLSAKMDYWGQGTQVTVSS”, the “polyreactivity (PSR sort gate)” value is reported as “low polyreactivity”.

“QVQLVESGGGLVQAGGSLRLSCAASGLTLFYYVMGWYRQAPGKERELVAANTTSGGRTYYADSVKGRFTISRDNAKHTVYLQMNSLKPEDTAVYYCAAQSSVAYIHTPTYRYDYWGQGTQVTVSS”: the “polyreactivity (PSR sort gate)” value is reported as “high polyreactivity”.

For the sequence “QVQLVESGGGLVQAGGSLRLSCAASGLTLGDNAMGWSRQAPGNERELVASITNGGSTNYADSVKGRFTISRDNAKNTVYLQMNSLNPEDTAVYYCAVEWTWRSTAYSGGAFDYWGQGTQVTVSS”, the “polyreactivity (PSR sort gate)” value is recorded as “low polyreactivity”.

On to “QVQLVESGGGLVQAGGSLRLSCAASGLTLGSYAMGWYRQAPGKERELVAAISRRSGRTYYADSVKGRFTISRDNAKNTVYLQMNSLKPEDTAVYYCAAEIPYYVDTPGDDYWGQGTQVTVSS”, for which the “polyreactivity (PSR sort gate)” value is listed as “low polyreactivity”.

Source of the values: the nanobody polyreactivity screen of Harvey et al. (2022).
